The values that follow come from patent publication US20240182897.

The subject of the data set is T1, pegylated peptide-linked C12-miR (P.5-L-C12-miR).
T1 sequence: KGDGG

Consider “lysosomal enzyme Cathepsin D (Cat. No. C8696, Sigma-Aldrich)”, for which the “enzyme cleavage in vitro, size reduction on 15% acrylamide/8 M urea gel” value was “the pegylated peptide-linked C12-miR (P.5-L-C12-miR) was cleaved by lysosomal cathepsin D and resulted in a smaller fragment”.
